Assay results from patent publication US20170081400A1 (CEPHALON, published 2017).

T1: human TL1A extracellular domain with N-terminal HIS and FLAG tag (human) (UniProt O95150)
T1 sequence: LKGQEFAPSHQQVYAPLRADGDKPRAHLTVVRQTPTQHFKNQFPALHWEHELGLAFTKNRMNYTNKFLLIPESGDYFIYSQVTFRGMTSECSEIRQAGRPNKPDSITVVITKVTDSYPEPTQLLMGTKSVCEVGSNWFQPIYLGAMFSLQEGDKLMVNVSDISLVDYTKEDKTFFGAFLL

T2: human TL1A extracellular domain with N-terminal HIS and FLAG tag (human, UniProt O95150 72-251)
T2 construct: whole entry named. ~70 kDa fraction purified by gel filtration
T2 sequence: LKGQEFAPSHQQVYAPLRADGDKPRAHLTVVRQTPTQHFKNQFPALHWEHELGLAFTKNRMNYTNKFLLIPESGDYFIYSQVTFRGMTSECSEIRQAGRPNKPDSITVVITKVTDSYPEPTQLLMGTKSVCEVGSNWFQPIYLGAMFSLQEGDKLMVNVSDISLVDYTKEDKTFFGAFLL

T3: single-site biotinylated human TL1A (human, UniProt O95150 72-251, single-site biotinylated (site not stated))
T3 construct: construct used for biotinylation not described
T3 sequence: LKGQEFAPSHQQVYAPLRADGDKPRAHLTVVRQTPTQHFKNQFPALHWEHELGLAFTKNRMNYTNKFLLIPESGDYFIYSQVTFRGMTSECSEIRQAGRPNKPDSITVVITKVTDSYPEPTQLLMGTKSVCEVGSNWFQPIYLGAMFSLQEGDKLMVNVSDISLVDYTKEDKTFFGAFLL


Columns and labels:
[1] = molecular target: membrane TL1A on human PBMCs (human) (UniProt O95150); assay: flow cytometry on human PBMCs, antibody staining against CD14 [left plot]
[2] = molecular target: T1, human TL1A extracellular domain with N-terminal HIS and FLAG tag (human); assay: cell-based or functional assay
[3] = molecular target: T2, human TL1A extracellular domain with …; assay: SPR run 1; purified antibody on Protein A; TL1A 10 ug/mL; timepoint 59
Text: (§1) 1.5. Antibody expression and antigen binding as determined by SPR. Using a CM5 sensor chip (GE Healthcare) Protein A (Pierce) was coupled to the chip surface using an amine coupling kit (GE Healthcare). Protein A was coupled on flow cell 1 and 2 (or alternatively 3 and 4) using a BIACORE® T200. […] The amount of supernatant or purified protein (as well as the concentration) injected during the capture stage varied between runs and is specified in the header of the Tables 3-11. At the end of injection of the supernatant or purified antibody the change in response units was measured. This value was reported as Capture Level in Tables 3-11. […] The response units were measured prior to the end of the dissociation phase. […] The sensorgrams were double referenced (flow cell 2 is subtracted from flow cell 1 and a buffer blank). As there were a large number of antibody variants to screen, these were screened across different runs (Tables 3-11). […] A summary of the conditions used in each run is below:
(§2) 2.1. […] In some experiment the antibodies were purified using Protein A chromatography (See 1.4) and purified antibodies were used in BIACORE® (GE Healthcare) experiments.

[4] = molecular target: T2, human TL1A extracellular domain with …; assay: SPR run 1; purified antibody on Protein A; TL1A 10 ug/mL; timepoint 590
Text: as §1, §2

[5] = molecular target: T1, human TL1A extracellular domain with N-terminal HIS and FLAG tag (human); assay: SPR Run 6, purified Ab captured on Protein A, TL1A 5 ug/mL, timepoint 170
[6] = molecular target: T1, human TL1A extracellular domain with N-terminal HIS and FLAG tag (human); assay: SPR Run 6, purified Ab captured on Protein A, TL1A 5 ug/mL, timepoint 44
[7] = molecular target: T3, single-site biotinylated human TL1A; assay: competition ELISA: antibody dilutions pre-incubated with biotinylated human TL1A (1 µg/ml), added to plate-coated DR3/Fc; bound TL1A detected with streptavidin-HRP; blocked partner DR3/Fc [top panel]
Description: (§3) 1.8. […] DR3/Fc Chimera (R&D Systems) or DcR3/Fc Chimera (R&D Systems) was coated onto a 96-well plate (Maxisorp, Nunc) at a concentration of 2 μg/ml.

[8] = molecular target: T3, single-site biotinylated human TL1A; assay: competition ELISA: antibody dilutions pre-incubated with biotinylated human TL1A (1 µg/ml), added to plate-coated DcR3/Fc; bound TL1A detected with streptavidin-HRP; blocked partner DcR3/Fc [bottom panel]
Description: as §3

Row | Molecule | Antibody IC50, TL1A induced caspase potency assay in TF-1 cells [2] [mg/L] | Fold improvement over 320-179, TL1A induced caspase potency assay in TF-1 cells [2] [fold] | TL1A Binding Level (Early) [3] [RU] | TL1A Binding Level (Late) [4] [RU] | also measured
1 | Isotype control (antibody) | – | – | – | – | number in the upper left quadrant (antibody-positive, CD14-negative cells) [1]: 0.51; number in the upper right quadrant (antibody-positive, CD14-positive cells) [1]: 0.07
2 | 320-186 (antibody, human IgG1, name in Kabat numbering, V domains shown, human IgG1, lambda) VH: QVQLVQSGAEVKKPGASVKVSCKASGYTFTSYDINWVRQAPGQGLEWMGWLNPNSGNTGYAQKFQGRVTMTADRSTSTAYMELSSLRSEDTAVYYCAREVPETAAFEYWGQGTLVTVSS VL: QSVLTQPPSVSGAPGQRVTISCTSSSSDIGAGLGVHWYQQLPGTAPKLLIEGYYNRPSGVPDRFSGSKSGTSASLTITGLQPEDEGDYYCQSYDGTLSALFGGGTKLTVLG | 0.03 | 1 | 136 | 113 | –
3 | 320-457 (antibody, human IgG1, name in Kabat numbering, V domains shown) VH: QVQLVQSGAEVKKPGASVKVSCKASGYTFTSYDDNWVRQAPGQGLEWMGWLNPNSGNTGYAQKFQGRVTMTADRSTSTAYMELSSLRSEDTAVYYCAREVPETAAFEYWGQGTLVTVSS VL: QSVLTQPPSVSGAPGQRVTISCTSSSSDIGAGLGVHWYQQLPGTAPKLLIEGYYNRPSGVPDRFSGSKSGTSASLTITGLLPEDEGDYYCQSYDGTLSALFGGGTKLTVLG | – | – | – | – | TL1A Binding Level (Late) [5]: 4 RU; TL1A Binding Level (Early) [6]: 6 RU
4 | 320-331 (antibody, human IgG1, name in Kabat numbering, V domains shown, human IgG1, lambda) VH: QVQLVQSGAEVKKPGASVKVSCKASGYTFTSYDINWVRQAPGQGLEWMGWLNPNSGNTGYAQKFQGRVTMTADRSTSTAYMELSSLRSEDTAVYYCAREVPETAAFEYWGQGTLVTVSS VL: QSVLTQPPSVSGAPGQRVTISCTSSSSDIGAGLGVHWYQQLPGTAPKLLIEGYYNRPSGVPDRFSGSKSGTSASLTITGLLPEDEGDYYCQSWDGTLSALFGGGTKLTVLG | – | – | – | – | IC50 (read off the curve) [7]: ~0.08 mg/L
5 | 320-191 (antibody, human IgG1, name in Kabat numbering, V domains shown, human IgG1, lambda) VH: QVQLVQSGAEVKKPGASVKVSCKASGYTFTSYDINWVRQAPGQGLEWMGWLNPNSGNTGYAQKFQGRVTMTADRSTSTAYMELSSLRSEDTAVYYCAREVPETAAFEYWGQGTLVTVSS VL: QSVLTQPPSVSGAPGQRVTISCTSSSSDIGAGLGVHWYQQLPGTAPKLLIEGYYNRPSGVPDRFSGSKSGTSASLTITGLYPEDEGDYYCQSYDGTLSALFGGGTKLTVLG | 0.02 | 2 | 140 | 117 | –
6 | 320-586 (antibody, human IgG1, name in Kabat numbering, V domains shown, human IgG1, lambda) VH: QVQLVQSGAEVKKPGASVKVSCKASGYTFTSYDINWVRQAPGQGLEWMGWLNPNSGNTGYAQKFQGRVTMTADRSTSTAYMELSSLRSEDTAVYYCAREVPETAAFEYWGQGTLVTVSS VL: QSVLTQPPSVSGAPGQRVTISCTSSSSDIGAGLGVLWYQQLPGTAPKLLIEGYYNRPSGVPDRFSGSKSGTSASLTITGLLPEDEGDYYCQSWDGTLSALFGGGTKLTVLG | – | – | – | – | IC50 (read off the curve) [8]: ~2 mg/L
7 | 320-190 (antibody, human IgG1, name in Kabat numbering, V domains shown, human IgG1, lambda) VH: QVQLVQSGAEVKKPGASVKVSCKASGYTFTSYDINWVRQAPGQGLEWMGWLNPNSGNTGYAQKFQGRVTMTADRSTSTAYMELSSLRSEDTAVYYCAREVPETAAFEYWGQGTLVTVSS VL: QSVLTQPPSVSGAPGQRVTISCTSSSSDIGAGLGVHWYQQLPGTAPKLLIEGYYNRPSGVPDRFSGSKSGTSASLTITGLWPEDEGDYYCQSYDGTLSALFGGGTKLTVLG | 0.02 | 2 | 136 | 113 | –
8 | 320-583 (antibody, human IgG1, name in Kabat numbering, V domains shown, human IgG1, lambda) VH: QVQLVQSGAEVKKPGASVKVSCKASGYTFTSYDINWVRQAPGQGLEWMGWLNPNSGNTGYAQKFQGRVTMTADRSTSTAYMELSSLRSEDTAVYYCAREVPETAAFEYWGQGTLVTVSS VL: QSVLTQPPSVSGAPGQRVTISCTSSSSDIGAALGVHWYQQLPGTAPKLLIEGYYNRPSGVPDRFSGSKSGTSASLTITGLLPEDEGDYYCQSWDGTLSALFGGGTKLTVLG | – | – | – | – | IC50 (read off the curve) [8]: ~1 mg/L
9 | 320-188 (antibody, human IgG1, name in Kabat numbering, V domains shown, human IgG1, lambda) VH: QVQLVQSGAEVKKPGASVKVSCKASGYTFTSYDINWVRQAPGQGLEWMGWLNPNSGNTGYAQKFQGRVTMTADRSTSTAYMELSSLRSEDTAVYYCAREVPETAAFEYWGQGTLVTVSS VL: QSVLTQPPSVSGAPGQRVTISCTSSSSDIGAGLGVHWYQQLPGTAPKLLIEGYYNRPSGVPDRFSGSKSGTSASLTITGLHPEDEGDYYCQSYDGTLSALFGGGTKLTVLG | 0.01 | 4 | 136 | 113 | –
10 | 320-585 (antibody, human IgG1, name in Kabat numbering, V domains shown, human IgG1, lambda) VH: QVQLVQSGAEVKKPGASVKVSCKASGYTFTSYDINWVRQAPGQGLEWMGWLNPNSGNTGYAQKFQGRVTMTADRSTSTAYMELSSLRSEDTAVYYCAREVPETAAFEYWGQGTLVTVSS VL: QSVLTQPPSVSGAPGQRVTISCTSSSSDIGAGQGVHWYQQLPGTAPKLLIEGYYNRPSGVPDRFSGSKSGTSASLTITGLLPEDEGDYYCQSWDGTLSALFGGGTKLTVLG | – | – | – | – | IC50 (read off the curve) [8]: ~2 mg/L
11 | 320-584 (antibody, human IgG1, name in Kabat numbering, V domains shown, human IgG1, lambda) VH: QVQLVQSGAEVKKPGASVKVSCKASGYTFTSYDINWVRQAPGQGLEWMGWLNPNSGNTGYAQKFQGRVTMTADRSTSTAYMELSSLRSEDTAVYYCAREVPETAAFEYWGQGTLVTVSS VL: QSVLTQPPSVSGAPGQRVTISCTSSSSDIGAGSGVHWYQQLPGTAPKLLIEGYYNRPSGVPDRFSGSKSGTSASLTITGLLPEDEGDYYCQSWDGTLSALFGGGTKLTVLG | – | – | – | – | IC50 (read off the curve) [8]: ~2 mg/L
12 | 320-189 (antibody, human IgG1, name in Kabat numbering, V domains shown, human IgG1, lambda) VH: QVQLVQSGAEVKKPGASVKVSCKASGYTFTSYDINWVRQAPGQGLEWMGWLNPNSGNTGYAQKFQGRVTMTADRSTSTAYMELSSLRSEDTAVYYCAREVPETAAFEYWGQGTLVTVSS VL: QSVLTQPPSVSGAPGQRVTISCTSSSSDIGAGLGVHWYQQLPGTAPKLLIEGYYNRPSGVPDRFSGSKSGTSASLTITGLKPEDEGDYYCQSYDGTLSALFGGGTKLTVLG | 0.11 | 0 | 130 | 107 | –
13 | 320-547 (antibody, human IgG1, name in Kabat numbering, V domains shown, human IgG1, lambda) VH: QVQLVQSGAEVKKPGASVKVSCKASGYTFTSYDINWVRQAPGQGLEWMGWLNPNSGYTGYAQKFQGRVTMTADRSTSTAYMELSSLRSEDTAVYYCAREVPETAAFEYWGQGTLVTVSS VL: QSVLTQPPSVSGAPGQRVTISCTSSSSDIGAGLGVHWYQQLPGTAPKLLIEGYYNRPSGVPDRFSGSKSGTSASLTITGLLPEDEGDYYCQSYDGTLSALFGGGTKLTVLG | – | – | – | – | IC50 (read off the curve) [7]: ~0.07 mg/L
14 | 320-187 (antibody, human IgG1, name in Kabat numbering, V domains shown, human IgG1, lambda) VH: QVQLVQSGAEVKKPGASVKVSCKASGYTFTSYDINWVRQAPGQGLEWMGWLNPNSGNTGYAQKFQGRVTMTADRSTSTAYMELSSLRSEDTAVYYCAREVPETAAFEYWGQGTLVTVSS VL: QSVLTQPPSVSGAPGQRVTISCTSSSSDIGAGLGVHWYQQLPGTAPKLLIEGYYNRPSGVPDRFSGSKSGTSASLTITGLDPEDEGDYYCQSYDGTLSALFGGGTKLTVLG | 0.02 | 2 | 134 | 112 | –
